# The domain aggregation screens of Martell et al. (2025)
# Experiment: soluble fraction after stress (log2 fold change); higher = more stays soluble; pooled small domains, quantitative proteomics
# Conditions: stress: 75 degC
# 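Further: 20 min heating vs room temperature control held 20 min.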
row,Sequence,soluble fraction (log2)
1,HMNMNDIKFGKYLKRVRKKYNFSKEYVANILKVKESLVSDWESGRLTLNDEYMEKLSLFYGVNLYKK,-1.57
2,HMNMPDVTVEWVKEQQAKFGLTDSDLAKSVNIDNANLARIFNQRGLTKIHKALFYYFFRAYGLQ,-3.33
3,HMNMRVLSEQPNKKSYQDGNLRLKVFGASFKKSDILNEALNQARVEETGLQIPKLLEVKQIDGQWTIVTE,-0.0583
4,HMNMVSGHLQVKKGYYYAVLSFYDSKNKRHVKYISTGLPEKGNKRKAEAELVKIRNAFEPPAE,-0.516
5,HMNNESEGAIMLRQYSSLSAYLTKYNIDVNSKKAQQYASSLKLAQEKGSAEGQKYLSSISSELDD,-0.205
6,HMNNIIEQIKADIKKLEEKLDKSSENALNKLEKDYSSLSTESKKKLDDAGYGARIKALRVKFAALSTQ,-0.0452
7,HMNNISKKIKELREQNNITQNKLANDLFIKQQTVAQWENGSRALKADSIISLAKYFNVSTDYLLGLTEN,-0.898
8,HMNNLKTKELSKIGYTNDKARSLVISIIPKHFKYHSKSEIIELLTNIKNKPEDYVSDEILGKIAETFMEKI,-1.23
9,HMNNLSEELNVTFPRTRDQLLNILHYVQHKYGYISKVSMQEIGNHIKMPVSEIYGTVTSYSEFKI,-2.25
10,HMNNLTEEAINHLVLEVKNVLLTDALFLGKATDSQLMLRIKETIDQRNGQYNIGMNDRERIARRVFARLR,-2.19
11,HMNNLVGKTKVLKSNTNIYAYKTMSGKFYSYLPNTRVRVLQDLGYINYIEVIATKRRGYVYENVY,-0.234
12,HMNNNIFVYPNPSINYINIDSDEEIWKLEIIQMSGEKINILPFSKRIDISFLSKGLYILNFNNYYIKFIK,-0.136
13,HMNNQIFGLKFRQLRKQQHITLAKAAAGITSRQSLGNWETGKGELAFEKVLLLLKKINVQPIDFLESSIS,-3.9
14,HMNNQILYERLRDLRERNHFTQAFVSSKLNIGRATYSNYERGKRTPSLDVIMDLASFYKVPFTYF,0.0974
15,HMNNQMTFSKFLNEVDAGRVVEVEIQGNNIKGVLADGNRFNTFSPNYPNLVEKLSDKGVSITAAPK,0.174
16,HMNPASVLDGLKITSFSPTRAIVAGPGGSRIVFDNEAVVLGGIEWDVHIQRNGIEFTSQGQTVLLLFDRS,-2.35
17,HMNPDDEMLLTYLTKLLVDKQFIVNSNDIFEYILRRVDRTYDGIYDIVSKLDVLSLEKKRQLTIPLIKEI,0.288
18,HMNPETIHNDYKAFIKFAFSGLSYYSKVWNQNREMITPGLLETLWQKYRHLSIGEIETILEKIIKEG,-2.38
19,HMNPGNTESFPVYQKRLGEIIQTLAGKKGQDINSPEVKELVGEYDFLTKQMFQLPDATSMVMEIATAYRN,0.0725
20,HMNPKTELMVYLKKRDEWVASQILSDVLQVSTRTIRKFVKEINMDYQTENVILSSSKGYKLNQNLLSSL,-1.19
21,HMNPLPALLRYFRQKAGLTQQDVAAALSISRSGYANYEEGRNIPNIEQAIKLSELLNHDFLYAYTLSS,-2.53
22,HMNPNYIKKLREKNQLTQEYLAAQIGVSRPTYAQIEQGQRGLTVTEAKKMADIFSLALDDFLAEKN,-0.135
23,HMNPSIALHDWLQSSEFKGSINLFAAALGMNPRTVEAWVYGRSTPSRRFWAKLYQITNLSRFRL,-1.08
24,HMNPYLWQRVRLLFSNVGVINNSATVDLVFSAPKGVLTEDLANNFSAALVKKGKEELGLDDIKITISVIPN,-3.67
25,HMNQADNFNSLTKREKDVLLLVTQGESNKSIADKLVLSEVTVKSHLNSIFKKLNVTNRTQAVLVAMQMNLV,-1.6
26,HMNQAIIVPDVKGLPLEEATTFFENNDLRYTVIDSVYTKDVPPGAIYEMVPGAGSKVKEGRIIFVTLNAR,-0.183

row,Sequence,soluble fraction (log2)
1,HMNQASLTYSEFIANVESKAITRVTISGDTISGILADGKPFQTIYPMADLELLPILRRSGVDINVKEVQ,-1.51
2,HMNQEIELLLREPDFTSAARLAMAINERFTNSARAIDPTSVKVRMPEGLDQASVDFVARLEDIEMSPDT,0.155
3,HMNQEQQSAVMSALKATLPDLEAALEARQFKESKQLLKTAQNQFQQLDGRNRRGFQARIQLLAGQFRELS,-0.179
4,HMNQIDDADRKRVVDEVAGQFSSMSLTEMRSDREKLLSRIIPQVQTTLNRLGLQTIDVEGIAREVIARVG,-0.0822
5,HMNQIFAPMPGLVLEVKLSEGDVVAEGESAIILEAMKMENIIKSPINGIVKKVHVKKGQTIEKNTLIISFK,-3.1
6,HMNQLSYTERRVLQVIEGGTTKTGEIEQALAAKMSRPTVHRALDALVGANRIHRLARGEYALGPAP,-0.501
7,HMNQRQKQLLSILEQQGDWMKGKALATLLAVSDRTIRSDIEKINREVEGSILSHPHKGYLLSVENRQIAET,0.107
8,HMNQSKYQTIADELKSKILSGEYPENTTIPPELQLQKDYQVSRHTIRQAIALLANEGFLRKEKGSGTYVDV,-0.147
9,HMNQTTYTVLYSGMDPADTGKVLTALNEMGVDARTQGEDTVLVPADRADEIRLELAAQGYPTS,0.06
10,HMNQYIFVLNEKGARITSFVDNTIPKEELIALAKQDYPNAADYIYSADGDSMLDEFMRGKLYVNGQFVAA,-0.843
11,HMNREIVVYITGAVDNPGLYRLPLDSRLDDVLKLAVLSTNADREVLNPAQKLKDGQKIVVPYIVE,-0.49
12,HMNRGITVIVNNEEIKMKEKAQYVVVDIFDYIDFDLTVPKGSINITLNGENTPYTASIKDGDVIEVFW,-1.09
13,HMNRIARRELMEQLFADNKITTQEQLQQLLRAEGVEVTQATISRDMRILNIVKVSDQNGNTYYKQMK,-0.171
14,HMNRIEMTEPIIIKDLSRETGIPWVAIQKRLAQDGIMANINTTIEAEKAQLIAVDYGIELAVV,-0.427
15,HMNRIGERIKRKRELRNLNLGELAEKVGISASALSQIEKSKSFPSVITLKSIAEQLRTTVGELIGEN,-0.191
16,HMNRIKIYPTPGSKVLSIENINFSLIHDFKILDIFGREVKNFTVSSEKNTKMLVDTSKLSDGLYFIFFNTF,-1.11
17,HMNRLEFLQGLKAELEGRVPHSIIQENLRYYDSYISDEAAKGQSEEDVVESLGGPRIIARTIVDAA,0.267
18,HMNRNEFMERLEYLLSDIPQEEKADAIAYYRDYLEEAGDDAGKAIQDFGSPERIAAMIRSELAG,-0.0288
19,HMNRQTGTVKWFNDAKGFGFITPESGPDLFVHFRSIQGAGFKSLQEGQRVTFVAVQGQKGMQADQVQA,-0.681
20,HMNRTKQIYNELLFRLDQGVYPPESKFPSESQLADEFSVSKVTMNKIVSMLASSGRLSRGVRGAGTFVSSP,-1.33
21,HMNRYPIQTEVHAFNDDIIKEAINFEMSRGGQIFFVNNRIPQLYELENTIHRLVPDARVVIGHGQMP,-0.216
22,HMNSFKIYPNPSSREVVRFNQAQDVKVYDTLGKLILSAKNTSAIDTKSFNTGIYFIKTANGLTKKLIV,-0.886
23,HMNSGFEVFREVVNQGSFIGAANALGISAPAVSKQIKLLENRLGLLLLYRTTRNVTLTDIGKQLFDTLDNS,-1.98
24,HMNSKKRQAILESLRSVTDHPTAEMIYNRLKPEYPDLSLGTVYRNLAMFLEEGQVISVGTVDGQERYDAR,-0.564
25,HMNSKSFIFHIEDEEGIRLDVFLADNLPDVSRSYVQKLIDEEHVKVNGQSAKSRLKTVSGMEITVDVPAPK,-0.56
26,HMNSLGYSDFVVDVQNERVASVVIEGLIINGERRDGTKFRTVLPTIGDQRLMDDLINHNVKVLARE,-0.375

row,Sequence,soluble fraction (log2)
1,HMNSLTVPDITNRTLAEASQVLLDMGLTPIPDAVAKDGVGDDVVYAQSPPPNVGAREGDVVTITYNPA,0.452
2,HMNSNISYSEFLSQVEKGTINSVEITGNSIKGIYADGGEFITFSPGDPGLIDKLQRSDIEILATPPA,0.233
3,HMNSPSKVIDISQLRKGMFVQLDLGWMSHPFAVGSFKVSTDEQIQTLRGLGLSEVRYIPEKSDPA,-1.2
4,HMNSQSGKGGVGYILETKYGLNLPPKMREAMGYAAKGVSDHLHKELHPDEIFDLFKKTFENVGQPYS,-0.271
5,HMNSSLLGKRIKSLREDHDLTQKELSLMIGLTPKMISFYENNQRTPPLDILLKLAKIFEVSVDYLIGYA,-0.615
6,HMNSTRAPYLLDFEEDAAIREARRAGLVPRIARQPSGEPVGRVILQSHDYDYPMKRGDTILITISSG,-0.833
7,HMNSTSGIAGVGYWINQYRKKKGMSPVDKKSPLVRRVYDWVQEQYDEGRITIISDAELTRQTELAMEA,-0.482
8,HMNSVAASLREISIKVSGTEDADKVSRLQELSQMPKLDASGIAEANTLLEQLRAKYGDLGLSVDTARGRIV,0.494
9,HMNSVSIAPEMLNWVIAHIQMNSLPKQIVEHLTAWISGQKEPTFNQIEKVSRATGIPLGYFFLEQPPKE,-2.51
10,HMNSYKGELLVDDKNIRLDLYLFNQFNFFSRTKIKNYILKGNVLVNNNKTSPSYILKGSEKIYYDFSVS,-3.21
11,HMNTEVDKVLLRSGEAYFGEVLLRNDELVMMKTQDGARFQFPVSEIKSIEKVSVADALRHINS,0.263
12,HMNTGFPIILETSDAANLTVGAPIMYRGVEVGKIRNMELNSLGDRVLIHILIGHKYQHLVRQNSEFWFSS,-4
13,HMNTKDRIKQLAAQRKITIAELERKLHIANGTIGKWDKQNPSIEPLKKLADYFGVTTDYLLGRT,-0.381
14,HMNTKLKPLYLLDIFREMTDERHRMTVPELLEELQRRGITAERKGIYRDIDALIQYGADIKHTGTGYYLAR,-0.93
15,HMNTKLSYSDLIEKIEAGQVEKVELDAGGSSAIVKLKNDNIEKRVNVPSIDNLMENLQDNMKTGNISVTE,0.168
16,HMNTLLGLSNSFQDNKDLENANSISRRFISYRPRSEAELRIRLLKVFSHEIVLESVAQMYREGLLNDQRF,-3.18
17,HMNTLTKEDIQKAIDVIPIDFKSVVILNLVEGFSYKETAEILEIPIGTVMSRLHRGRKILQKLLWEYSSSK,-1.4
18,HMNTTTTKVVSVSSLNMRSGPSTSYNIIEVLTKDTQVEVISVEDGWAKIKYNSKTGYVSNQYLSDKK,-0.934
19,HMNTVAKELATQATQAKKRAFLDAYAETGIIKRAAEIAGIERKSHYLWLEKDPEYVEAFKSAGEQ,0.427
20,HMNTVSVGNLGLSVRAVNALKQAGIDTYDKLQELSWEELLLIPKLGQVTAAEIYRFITSYKKG,-1.56
21,HMNVAETITLGKRLFNHALTILGKKQRNISRKQLKNFLNDLGLKDSKDLYESIGTGDKNPILMAQLLLG,-0.512
22,HMNVAVGNSKLVGVAGERAYFVNGVGAAARTLSLQVGDALPTGEKVRRIERDGVTMTGASGDVRLSVLP,0.00812
23,HMNVDALIGTKGIVVQPIRPFAVGQVKVNGQVWSAVGKTPETDIEQGREVKVHAIEGVKLVVTPT,0.501
24,HMNVDALVGMPARVTRAFVQGAGEVKLDNGETWTARLSAGVTDAEASVGQTVSVIAVRGAAVEVAPE,0.0183
